Data taken from patent US20090324573A1, “Pharmaceutical Composition Comprising P43 Protein for the Treatment of Gastric Adenocarcinoma” (priority 2006, published 2009).

Key:
Assay type in all cases: in vivo, BALB/cA bare mouse
Set-up in all cases: TV d 0 / TV d 21: unit not given here
Conditions in all cases: for RTV: RTV=Vt/V0; for T/C (%): TRTV/CRTV×100; for Weight (g) Final: final body weight; for Weight (g) First: first (baseline) body weight; for TV d 0: d 0, day of first administration
[1] = tested on: human gastric adenocarcinoma SGC-7901; assay: Transplanted tumor of human gastric adenocarcinoma SGC-7901 in bare mouse
Text: (§1) Animal Resource, Line and Strain: BALB/cA bare mouse, provided by Experimental Animal Center, Chinese Academy of Sciences, Shanghai, China.
Bare mouse transplanted with human gastric adenocarcinoma […] was established by subcutaneously inoculating human gastric adenocarcinoma SGC-7901 cell strain into bare mouse, with a inoculation concentration of 1-3×10^6. After establishing the transplanted tumor, it was passaged in bare mouse for three generations prior to use.
(§2) The eugonic tumor tissue was cut into about 1.5 mm^3. It was inoculated into hypodermis in right armpit of bare mouse under aseptic condition. The diameter of the transplanted tumor of the bare mouse was measured by vernier caliper. After the tumor grew to 100-300 mm^3, the mice were grouped randomly. The effect of reagents used for inhibiting tumor was observed dynamically through measuring the diameter of tumor. The diameter of tumor was measured 3 times per week, while measuring the weight of mice. With respect to the mice in an administration group, the mice were administrated by intravenous injection 6 times per week: with respect to the mice in a positive control group, the mice were administrated by intravenous injection 2 times per week; with respect to the mice in a negative control group, the mice were administrated by same amount of physiological saline at the same time.
(§3) The tumor volume (TV) was calculated as follows:
(§4) in which a and b represent length and width, respectively. The relative tumor volume (RTV) was calculated based on the measured results: RTV=Vt/V0, in which V0 represents the tumor volume measured at the first administration (d0), and Vt represents the tumor volume measured at each measurement. The factor for estimating the effect against tumor is the relative tumor proliferation T/C (%) as follows:
(§5) TRTV: RTV for treating group; CRTV: RTV for negative control group.
100 mg of p43 protein, obtained from Sine Laboratory in Shanghai, China, was dissolved in physiological saline to form a solution of 1 mg/ml.
(§6) The solution was administrated to bare mouse by intravenous injection in 2.5 mg p43 protein/kg weight, 5 mg p43 protein/kg weight, and 10 mg p43 protein/kg weight.

[2] = tested on: human colon carcinoma HCT-116; assay: Transplanted tumor of human colon carcinoma HCT-116 in bare mouse
Text: as §1
(§7) Number of animal in each group: 10 mice for negative control group and 5 mice for treating group
(§8) Transplanted tumor of human colon carcinoma HCT-116 in bare mouse was established by inoculating human colon carcinoma HCT-116 cell strain into hypoderm of bare mouse, with a inoculation concentration of 1-3×10^6. After establishing the transplanted tumor, it was passaged in bare mouse for three generations prior to use.
as §2, with “through the method of” for “through”, “week,” for “week:”
as §3
as §4, with “depending” for “based”, “growth” for “proliferation”
as §5
100 mg of p43 protein, available from Sine Laboratory in Shanghai, China, was dissolved in physiological saline to form a solution of 1 mg/ml.
as §6

[3] = tested on: human nasopharyngeal carcinoma CNE-1; assay: Transplanted tumor of human nasopharyngeal carcinoma CNE-1 in bare mouse
Text: as §1, §7
as §8, with “nasopharyngeal” for “colon”, “CNE-1” for “HCT-116”
as §2, with “fro” for “for”, “through the method of” for “through”, “week;” for “week:”
as §3
as §4, with “depending” for “based”, “growth” for “proliferation”
as §5
100 mg of p43 protein, available from Sine Laboratory in Shanghai, China, was dissolved in physiological saline to form a solution of 1 mg/ml. […]

[4] = 2.5 mg/kg intravenous injection 6 times per week
[5] = 2.5 mg/kg intravenous injection
[6] = 5 mg/kg intravenous injection 6 times per week
[7] = 10 mg/kg intravenous injection 6 times per week

B1: P43: accessory factor of tRNA synthetase of mammals; single-chain protein of 312 amino acids; obtained from Sine Laboratory, Shanghai (protein, UniProt Q12904 2-312, looked up)
Aminoacyl tRNA synthase …: ANNDAVLKRLEQKGAEADQIIEYLKQQVSLLKEKAILQATLREEKKLRVENAKLKKEIEELKQELIQAEIQNGVKQIPFPSGTPLHANSMVSENVIQSTAVTTVSSGTKEQIKGGTGDEKKAKEKIEKKGEKKEKKQQSIAGSADSKPIDVSRLDLRIGCIITARKHPDADSLYVEEVDVGEIAPRTVVSGLVNHVPLEQMQNRMVILLCNLKPAKMRGVLSQAMVMCASSPEKIEILAPPNGSVPGDRITFDAFPGEPDKELNPKKKIWEQIQPDLHTNDECVATYKGVPFEVKGKGVCRAQTMSNSGIK
- RTV [1, 4]: 17.14 ± 7.25
- T/C (%) [1, 4]: 81.7%
- TV d 21 [1, 4]: 2400 ± 360
- Weight (g) Final [1, 4]: 26.7 ± 1.7 g
- Weight (g) First [1, 4]: 20.3 ± 0.9 g
- TV d 0 [1, 5]: 140 ± 73
- RTV [1, 6]: 11.37 ± 6.3
- T/C (%) [1, 6]: 54.2%
- TV d 21 [1, 6]: 1648 ± 102
- Weight (g) Final [1, 6]: 25.1 ± 1.9 g
- Weight (g) First [1, 6]: 20.5 ± 0.7 g
- TV d 0 ([1]; 5 mg/kg intravenous injection): 146 ± 72
- RTV [1, 7]: 12.99 ± 5.14
- T/C (%) [1, 7]: 61.9%
- TV d 21 [1, 7]: 1715 ± 168
- Weight (g) Final [1, 7]: 25.4 ± 2.8 g
- Weight (g) First [1, 7]: 20.7 ± 0.6 g
- TV d 0 ([1]; 10 mg/kg intravenous injection): 132 ± 34
- side effect ([1]; SGC-7901 bearing bare mouse, 2.5, 5 and 10 mg/kg intravenous injection): without any obvious side effect
- inhibition on growth of transplanted tumor ([1]; SGC-7901 in bare mouse, 2.5, 5 and 10 mg/kg intravenous injection): significant inhibition
- RTV [2, 4]: 5.01 ± 0.92
- T/C (%) [2, 4]: 84.5%
- TV d 21 [2, 4]: 822 ± 145
- Weight (g) Final [2, 4]: 24.1 ± 1.5 g
- Weight (g) First [2, 4]: 20.7 g
- TV d 0 [2, 5]: 164 ± 48
- RTV [2, 6]: 4.51 ± 0.75
- T/C (%) [2, 6]: 76.0%
- TV d 21 [2, 6]: 703 ± 189
- Weight (g) Final [2, 6]: 23.9 ± 2.2 g
- Weight (g) First [2, 6]: 21.3 g
- TV d 0 ([2]; 5 mg/kg intravenous injection): 156 ± 39
- RTV [2, 7]: 4.73 ± 1.01
- T/C (%) [2, 7]: 79.7%
- T/C (%) ([2]; 10 mg/kg intravenous injection 6 times per week, listed as p43): 79.79%
- TV d 21 [2, 7]: 761 ± 211
- Weight (g) Final [2, 7]: 23.5 ± 2.1 g
- Weight (g) First [2, 7]: 20.9 g
- TV d 0 ([2]; 10 mg/kg intravenous injection): 161 ± 52
- side effect ([2]; HCT-116 bearing bare mouse, 2.5, 5 and 10 mg/kg intravenous injection): without any obvious side effect
- inhibition on growth of transplanted tumor ([2]; HCT-116 in bare mouse, 2.5, 5 and 10 mg/kg intravenous injection): non-significant inhibition
- RTV [3, 4]: 13.43 ± 5.64
- T/C (%) [3, 4]: 88.9%
- TV d 21 [3, 4]: 1921 ± 201
- Weight (g) Final [3, 4]: 24.6 ± 2.4 g
- Weight (g) First [3, 4]: 20.5 ± 1.3 g
- TV d 0 [3, 5]: 143 ± 70
- RTV [3, 6]: 12.75 ± 5.12
- T/C (%) [3, 6]: 84.4%
- TV d 21 [3, 6]: 1708 ± 154
- Weight (g) Final [3, 6]: 23.1 ± 1.8 g
- Weight (g) First [3, 6]: 19.6 ± 0.8 g
- TV d 0 ([3]; 5 mg/kg intravenous injection): 134 ± 48
- RTV [3, 7]: 12.63 ± 4.88
- T/C (%) [3, 7]: 83.6%
- TV d 21 [3, 7]: 1856 ± 173
- Weight (g) Final [3, 7]: 22.9 ± 2.3 g
- Weight (g) First [3, 7]: 19.8 ± 1.1 g
- TV d 0 ([3]; 10 mg/kg intravenous injection): 147 ± 63
- side effect ([3]; CNE-1 bearing bare mouse, 2.5, 5 and 10 mg/kg intravenous injection): without any obvious side effect
- inhibition on growth of transplanted tumor ([3]; CNE-1 in bare mouse, 2.5, 5 and 10 mg/kg intravenous injection): non-significant inhibition
